# Measurements from IntAct's records for PubMed 20729554.
# B1: Matrilin-1 (Homo sapiens), P21941 (parent)
# chain: MRVLSGTSLMLCSLLLLLQALCSPGLAPQSRGHLCRTRPTDLVFVVDSSRSVRPVEFEKVKVFLSQVIESLDVGPNATRVGMVNYASTVKQEFSLRAHVSKAALLQAVRRIQPLSTGTMTGLAIQFAITKAFGDAEGGRSRSPDISKVVIVVTDGRPQDSVQDVSARARASGVELFAIGVGSVDKATLRQIASEPQDEHVDYVESYSVIEKLSRKFQEAFCVVSDLCATGDHDCEQVCISSPGSYTCACHEGFTLNSDGKTCNVCSGGGGSSATDLVFLIDGSKSVRPENFELVKKFISQIVDTLDVSDKLAQVGLVQYSSSVRQEFPLGRFHTKKDIKAAVRNMSYMEKGTMTGAALKYLIDNSFTVSSGARPGAQKVGIVFTDGRSQDYINDAAKKAKDLGFKMFAVGVGNAVEDELREIASEPVAEHYFYTADFKTINQIGKKLQKKICVEEDPCACESLVKFQAKVEGLLQALTRKLEAVSKRLAILENTVV
# Variants of: B1
# Settings: with co2a1_bovin COL2A1, P02459
# co2a1_bovin COL2A1, P02459, sequence (P02459 whole entry): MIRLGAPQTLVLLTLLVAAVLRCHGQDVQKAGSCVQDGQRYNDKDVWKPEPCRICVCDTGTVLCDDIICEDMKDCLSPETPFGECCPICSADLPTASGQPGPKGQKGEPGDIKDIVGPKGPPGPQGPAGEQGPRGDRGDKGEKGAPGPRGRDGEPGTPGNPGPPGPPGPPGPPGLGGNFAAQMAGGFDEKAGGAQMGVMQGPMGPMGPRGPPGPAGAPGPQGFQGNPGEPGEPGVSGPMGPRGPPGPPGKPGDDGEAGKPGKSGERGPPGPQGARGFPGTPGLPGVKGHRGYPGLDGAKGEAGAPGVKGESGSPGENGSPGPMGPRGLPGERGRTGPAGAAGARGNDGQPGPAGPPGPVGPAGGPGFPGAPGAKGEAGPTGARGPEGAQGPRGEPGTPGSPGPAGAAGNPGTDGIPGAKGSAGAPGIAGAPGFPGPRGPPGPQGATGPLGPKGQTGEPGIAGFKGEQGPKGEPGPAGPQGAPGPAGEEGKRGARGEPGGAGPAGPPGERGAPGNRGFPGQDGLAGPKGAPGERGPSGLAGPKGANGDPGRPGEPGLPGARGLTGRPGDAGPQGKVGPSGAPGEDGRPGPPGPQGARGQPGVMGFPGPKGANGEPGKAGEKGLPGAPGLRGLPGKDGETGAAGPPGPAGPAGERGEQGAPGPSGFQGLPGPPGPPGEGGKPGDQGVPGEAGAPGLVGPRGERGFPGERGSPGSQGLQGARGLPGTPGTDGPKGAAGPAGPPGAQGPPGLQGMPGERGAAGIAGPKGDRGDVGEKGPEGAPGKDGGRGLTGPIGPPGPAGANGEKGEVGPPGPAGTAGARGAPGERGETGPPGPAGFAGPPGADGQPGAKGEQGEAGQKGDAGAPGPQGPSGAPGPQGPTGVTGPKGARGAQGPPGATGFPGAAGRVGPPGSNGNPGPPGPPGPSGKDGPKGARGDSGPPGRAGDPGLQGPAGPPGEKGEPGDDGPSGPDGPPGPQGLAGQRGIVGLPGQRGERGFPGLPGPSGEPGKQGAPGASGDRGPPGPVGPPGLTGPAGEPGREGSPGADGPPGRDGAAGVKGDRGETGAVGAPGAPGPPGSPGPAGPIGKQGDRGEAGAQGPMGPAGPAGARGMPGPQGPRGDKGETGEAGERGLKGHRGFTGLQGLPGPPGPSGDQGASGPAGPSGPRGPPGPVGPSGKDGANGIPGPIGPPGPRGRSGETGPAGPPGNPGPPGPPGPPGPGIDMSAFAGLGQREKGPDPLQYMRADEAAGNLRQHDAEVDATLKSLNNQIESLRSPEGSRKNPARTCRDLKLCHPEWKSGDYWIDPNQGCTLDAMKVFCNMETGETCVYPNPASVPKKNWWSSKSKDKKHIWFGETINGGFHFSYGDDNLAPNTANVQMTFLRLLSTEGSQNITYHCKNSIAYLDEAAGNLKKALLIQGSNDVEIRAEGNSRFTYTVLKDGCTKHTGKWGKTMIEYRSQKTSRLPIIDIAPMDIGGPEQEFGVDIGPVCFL
row,Variant,effect of a mutation on the interaction
1,N76A,increasing interaction strength

# Variants of: B1
# Settings: with co2a1_bovin COL2A1, P02459
# Remark: another data set of the same source
row,Variant,effect of a mutation on the interaction
1,N344A,with no effect
